Data as given in patent US20240059789A1 (Janssen / Centocor, published 2024).

B1: PS3B931 (bispecific antibody, human IgG1, kappa, lambda, L234A L235A)
heavy 1: EVQLVESGGGLVKPGGSLRLSCAASGFTFSRYNMNWVRQAPGKGLEWVSSISTSSNYIYYADSVKGRFTFSRDNAKNSLDLQMSGLRAEDTAIYYCTRGWGPFDYWGQGTLVTVSSASTKGPSVFPLAPSSKSTSGGTAALGCLVKDYFPEPVTVSWNSGALTSGVHTFPAVLQSSGLYSLSSVVTVPSSSLGTQTYICNVNHKPSNTKVDKKVEPKSCDKTHTCPPCPAPEAAGGPSVFLFPPKPKDTLMISRTPEVTCVVVSVSHEDPEVKFNWYVDGVEVHNAKTKPREEQYNSTYRVVSVLTVLHQDWLNGKEYKCKVSNKALPAPIEKTISKAKGQPREPQVYTLPPSREEMTKNQVSLTCLVKGFYPSDIAVEWESNGQPENNYKTTPPVLDSDGSFLLYSKLTVDKSRWQQGNVFSCSVMHEALHNHYTQKSLSLSP
light 1: DIQMTQSPSSLSASVGDRVTITCRARQSIGTAIHWYQQKPGKAPKLLIKYASESISGVPSRFSGSGSGTDFTLTISSLQPEDFATYYCQQSGSWPYTFGQGTKLEIKRTVAAPSVFIFPPSDEQLKSGTASVVCLLNNFYPREAKVQWKVDNALQSGNSQESVTEQDSKDSTYSLSSTLTLSKADYEKHKVYACEVTHQGLSSPVTKSFNRGEC
heavy 2: EVQLVESGGGLVKPGGSLRLSCAASGFTFSRYNMNWVRQAPGKGLEWVSSINSNSRYIYYADSVKGRFTISRDSAKNSLYLQMNSLRAEDTAVYYCAKTMGDYYYYYGMDVWGQGTTVTVSSASTKGPSVFPLAPSSKSTSGGTAALGCLVKDYFPEPVTVSWNSGALTSGVHTFPAVLQSSGLYSLSSVVTVPSSSLGTQTYICNVNHKPSNTKVDKKVEPKSCDKTHTCPPCPAPEAAGGPSVFLFPPKPKDTLMISRTPEVTCVVVSVSHEDPEVKFNWYVDGVEVHNAKTKPREEQYNSTYRVVSVLTVLHQDWLNGKEYKCKVSNKALPAPIEKTISKAKGQPREPQVYTLPPSREEMTKNQVSLTCLVKGFYPSDIAVEWESNGQPENNYKTTPPVLDSDGSFFLYSRLTVDKSRWQQGNVFSCSVMHEALHNHYTQKSLSLSPG
light 2: SSELTQPPSVSGAPGQRVTISCAGSLSNIGAGYDVHWYQQLPGTAPKLLIYGNINRLSGVPERFSGSKSGTSASLAITGLQAEDGADYYCQSYDSSLSSYVFGTGTKVTVLGQPKAAPSVTLFPPSSEELQANKATLVCLISDFYPGAVTVAWKADSSPVKAGVETTTPSKQSNNKYAASSYLSLTPEQWKSHRSYSCQVTHEGSTVEKTVAPTECS
B2: PS3B928 (bispecific antibody, human IgG1, kappa, lambda, L234A L235A)
heavy 1: B1 heavy 1
light 1: B1 light 1
heavy 2: not shown
light 2: not shown
B3: PS3B926 (bispecific antibody, human IgG1, kappa, lambda, L234A L235A)
heavy 1: B1 heavy 1
light 1: B1 light 1
heavy 2: not shown
light 2: not shown
B4: PS3B922 (bispecific antibody, human IgG1, lambda, L234A L235A)
heavy 1: QVQLQQSGPRLVRPSQTLSLTCAISGDSVFNNNAAWSWIRQSPSRGLEWLGRTYYRSKWLYDYAVSVKSRITVNPDTSRNQFTLQLNSVTPEDTALYYCARGYSSSFDYWGQGTLVTVSSASTKGPSVFPLAPSSKSTSGGTAALGCLVKDYFPEPVTVSWNSGALTSGVHTFPAVLQSSGLYSLSSVVTVPSSSLGTQTYICNVNHKPSNTKVDKKVEPKSCDKTHTCPPCPAPEAAGGPSVFLFPPKPKDTLMISRTPEVTCVVVSVSHEDPEVKFNWYVDGVEVHNAKTKPREEQYNSTYRVVSVLTVLHQDWLNGKEYKCKVSNKALPAPIEKTISKAKGQPREPQVYTLPPSREEMTKNQVSLTCLVKGFYPSDIAVEWESNGQPENNYKTTPPVLDSDGSFLLYSKLTVDKSRWQQGNVFSCSVMHEALHNHYTQKSLSLSPG
light 1: QSALTQPASVSGSPGQSITISCTGTSSNIGTYKFVSWYQQHPDKAPKVLLYEVSKRPSGVSSRFSGSKSGNTASLTISGLQAEDQADYHCVSYAGSGTLLFGGGTKLTVLGQPKAAPSVTLFPPSSEELQANKATLVCLISDFYPGAVTVAWKADSSPVKAGVETTTPSKQSNNKYAASSYLSLTPEQWKSHRSYSCQVTHEGSTVEKTVAPTECS
heavy 2: EVQLVESGGGLVQPGGSLRLSCAASGFTFSSYAMSWVRQAPGKGLEWVSAISGGSGSTYYADSVKGRFTISRDNSKNTLYLQMNSLRAEDSAVYYCAKDGVGATPYYFDYWGQGTLVTVSSASTKGPSVFPLAPSSKSTSGGTAALGCLVKDYFPEPVTVSWNSGALTSGVHTFPAVLQSSGLYSLSSVVTVPSSSLGTQTYICNVNHKPSNTKVDKKVEPKSCDKTHTCPPCPAPEAAGGPSVFLFPPKPKDTLMISRTPEVTCVVVSVSHEDPEVKFNWYVDGVEVHNAKTKPREEQYNSTYRVVSVLTVLHQDWLNGKEYKCKVSNKALPAPIEKTISKAKGQPREPQVYTLPPSREEMTKNQVSLTCLVKGFYPSDIAVEWESNGQPENNYKTTPPVLDSDGSFFLYSRLTVDKSRWQQGNVFSCSVMHEALHNHYTQKSLSLSPG
light 2: QSVLTQPPSVSAAPGQKVTISCSGSSSNIGINYVSWYQQLPGTAPKLLIYDNNKRPSGIPDRFSGSKSGTSATLGITGLQTGDEADYYCGTWDSSLSAVVFGGGTKLTVLGQPKAAPSVTLFPPSSEELQANKATLVCLISDFYPGAVTVAWKADSSPVKAGVETTTPSKQSNNKYAASSYLSLTPEQWKSHRSYSCQVTHEGSTVEKTVAPTECS
B5: PS3B918 (bispecific antibody, human IgG1, lambda, L234A L235A)
heavy 1: B4 heavy 1
light 1: B4 light 1
heavy 2: B1 heavy 2
light 2: B1 light 2

biological target: Human CD3 on T cells / Jurkat cells (human, UniProt P07766 23-207); assay: cell-based or functional assay
Sequence (P07766 23-207 limits assumed): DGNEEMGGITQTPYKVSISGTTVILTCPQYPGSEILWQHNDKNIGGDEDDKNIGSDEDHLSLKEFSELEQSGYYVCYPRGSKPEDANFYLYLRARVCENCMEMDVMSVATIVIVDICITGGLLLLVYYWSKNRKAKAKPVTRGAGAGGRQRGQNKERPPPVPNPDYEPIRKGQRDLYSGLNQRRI

Binder | T cell activation EC50 [M] (CD25+ T cells, C4-2B co-culture, 72 h)
B1 | 1e-08
B2 | 1.84e-10
B3 | 3.45e-11
B4 | 5.85e-11
B5 | 1e-08

biological target: Human PSMA on prostate cancer cell lines (C4-2B, 22RV1) (human, UniProt Q04609 1-750); assay: cell-based or functional assay
Sequence (Q04609 whole entry): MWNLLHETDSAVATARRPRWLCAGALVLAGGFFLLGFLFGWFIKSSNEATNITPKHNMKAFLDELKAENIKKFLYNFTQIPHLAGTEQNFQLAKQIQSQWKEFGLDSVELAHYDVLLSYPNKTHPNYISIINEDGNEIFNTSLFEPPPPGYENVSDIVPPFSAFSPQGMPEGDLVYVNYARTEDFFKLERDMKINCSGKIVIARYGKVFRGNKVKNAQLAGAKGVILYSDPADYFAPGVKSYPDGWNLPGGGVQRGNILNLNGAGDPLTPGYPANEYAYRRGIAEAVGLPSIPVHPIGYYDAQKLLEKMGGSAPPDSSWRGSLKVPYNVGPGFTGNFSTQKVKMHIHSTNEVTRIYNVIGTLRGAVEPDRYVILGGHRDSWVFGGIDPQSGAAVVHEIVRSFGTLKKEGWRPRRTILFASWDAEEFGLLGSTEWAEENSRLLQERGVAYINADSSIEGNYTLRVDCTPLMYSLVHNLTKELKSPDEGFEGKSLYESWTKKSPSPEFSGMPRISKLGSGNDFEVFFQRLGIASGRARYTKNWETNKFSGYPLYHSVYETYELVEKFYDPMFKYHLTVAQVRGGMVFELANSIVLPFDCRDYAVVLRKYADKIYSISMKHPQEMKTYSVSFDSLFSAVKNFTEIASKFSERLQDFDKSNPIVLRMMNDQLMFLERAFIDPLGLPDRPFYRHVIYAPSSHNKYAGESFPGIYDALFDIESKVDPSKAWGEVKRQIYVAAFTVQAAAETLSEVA

Binder | Tumor killing EC50 [M] (C4-2B + PAN-T cells, 72 h, flow cytometry)
B1 | 1e-08
B2 | 4.81e-10
B3 | 4.78e-11
B4 | 7.79e-11
B5 | 1e-08
